US20120207760A1

How the values were obtained:
[1] = biological target: hemagglutinin (HA) of influenza A/Solomon Islands/3/06 H1N1 (Influenza A virus A/Solomon Islands/3/2006 (H1N1)); assay: ELISA, inactivated whole virions coated; transfection supernatant set 4
[2] = biological target: hemagglutinin (HA) of influenza A/Wisconsin/67/05 H3N2 (Influenza A virus A/Wisconsin/67/2005 (H3N2)); assay: as above
[3] = biological target: hemagglutinin (HA) of influenza A/Japan/305/57 H2N2 (Influenza A virus A/Japan/305/1957 (H2N2)) (UniProt P03451); assay: as above
[4] = biological target: recombinant homotrimeric HA, A/Egypt/3300-NAMRU3/08 H5N1 (Influenza A virus A/Egypt/3300-NAMRU3/08 (H5N1)); assay: trimeric HA microarray, transfection set 1
[5] = biological target: recombinant homotrimeric HA, A/Solomon Islands/3/06 H1N1 (Influenza A virus A/Solomon Islands/3/06 (H1N1)); assay: trimeric HA microarray, transfection set 1
[6] = biological target: recombinant homotrimeric HA, A/South Carolina/1/18 H1N1 (Influenza A virus A/South Carolina/1/18 (H1N1)); assay: trimeric HA microarray, transfection set 1
[7] = biological target: recombinant homotrimeric HA, A/Hong Kong/2108/03 H9N2 (Influenza A virus A/Hong Kong/2108/03 (H9N2)); assay: trimeric HA microarray, transfection set 1
[8] = biological target: recombinant homotrimeric HA, A/Hong Kong/1073/99 H9N2 (Influenza A virus A/Hong Kong/1073/99 (H9N2)); assay: trimeric HA microarray, transfection set 1
[9] = biological target: recombinant homotrimeric HA, A/Anhui/1/05 H5N1 (Influenza A virus A/Anhui/1/05 (H5N1)); assay: trimeric HA microarray, transfection set 1
[10] = biological target: recombinant homotrimeric HA, A/duck/Yangzhou/02/05 H8N4 (Influenza A virus A/duck/Yangzhou/02/2005 (H8N4)); assay: trimeric HA microarray, transfection set 1
[11] = biological target: recombinant homotrimeric HA, A/Indonesia/5/05 H5N1 (Influenza A virus A/Indonesia/5/05 (H5N1)); assay: trimeric HA microarray, transfection set 1
[12] = biological target: recombinant homotrimeric HA, A/Wisconsin/67/05 H3N2 (Influenza A virus A/Wisconsin/67/05 (H3N2)); assay: trimeric HA microarray, transfection set 1
[13] = biological target: recombinant homotrimeric HA, A/northern shoveler/California/HKWF115/07 (Influenza A virus A/northern shoveler/California/HKWF115/2007 (H6N1)); assay: trimeric HA microarray, transfection set 1
[14] = biological target: recombinant homotrimeric HA, A/common magpie/Hong Kong/5052/07 H5N1 (Influenza A virus A/common magpie/Hong Kong/5052/07 (H5N1)); assay: trimeric HA microarray, transfection set 1
[15] = biological target: recombinant homotrimeric HA, A/Netherlands/219/03 H7N7 (Influenza A virus A/Netherlands/219/03 (H7N7)); assay: trimeric HA microarray, transfection set 1
[16] = biological target: recombinant homotrimeric HA, A/swine/Ontario/01911-2/99 H4N6 (Influenza A virus A/swine/Ontario/01911-2/99 (H4N6)); assay: trimeric HA microarray, transfection set 1
[17] = biological target: recombinant homotrimeric HA, A/chicken/Vietnam/NCVD-016/08 H5N1 (Influenza A virus A/chicken/Vietnam/NCVD-016/08 (H5N1)); assay: trimeric HA microarray, transfection set 1
[18] = biological target: recombinant homotrimeric HA, A/Solomon Islands/3/06 H1N1 (Influenza A virus A/Solomon Islands/3/06 (H1N1)); assay: trimeric HA microarray, transfection set 5
[19] = biological target: recombinant homotrimeric HA, A/Vietnam/1203/04 H5N1 (Influenza A virus A/Vietnam/1203/04 (H5N1)); assay: trimeric HA microarray, transfection set 5
[20] = biological target: recombinant homotrimeric HA, A/South Carolina/1/18 H1N1 (Influenza A virus A/South Carolina/1/18 (H1N1)); assay: trimeric HA microarray, transfection set 5
[21] = biological target: recombinant homotrimeric HA, A/California/4/09 H1N1 (Influenza A virus A/California/4/09 (H1N1)); assay: trimeric HA microarray, transfection set 5
[22] = biological target: recombinant homotrimeric HA, A/Indonesia/5/05 H5N1 (Influenza A virus A/Indonesia/5/05 (H5N1)); assay: trimeric HA microarray, transfection set 5
[23] = biological target: recombinant homotrimeric HA, A/Japan/305/57 H2N2 (Influenza A virus A/Japan/305/57 (H2N2)); assay: trimeric HA microarray, transfection set 5
[24] = biological target: recombinant homotrimeric HA, A/Wisconsin/67/05 H3N2 (Influenza A virus A/Wisconsin/67/05 (H3N2)); assay: trimeric HA microarray, transfection set 5
[25] = biological target: recombinant homotrimeric HA, A/swine/Ontario/01911-2/99 H4N6 (Influenza A virus A/swine/Ontario/01911-2/99 (H4N6)); assay: trimeric HA microarray, transfection set 5
[26] = biological target: recombinant homotrimeric HA, A/Solomon Islands/3/06 H1N1 (Influenza A virus A/Solomon Islands/3/06 (H1N1)); assay: trimeric HA microarray, transfection set 4
[27] = biological target: recombinant homotrimeric HA, A/Vietnam/1203/04 H5N1 (Influenza A virus A/Vietnam/1203/04 (H5N1)); assay: trimeric HA microarray, transfection set 4
[28] = biological target: recombinant homotrimeric HA, A/South Carolina/1/18 H1N1 (Influenza A virus A/South Carolina/1/18 (H1N1)); assay: trimeric HA microarray, transfection set 4
[29] = biological target: recombinant homotrimeric HA, A/California/4/09 H1N1 (Influenza A virus A/California/4/09 (H1N1)); assay: trimeric HA microarray, transfection set 4
[30] = biological target: recombinant homotrimeric HA, A/Indonesia/5/05 H5N1 (Influenza A virus A/Indonesia/5/05 (H5N1)); assay: trimeric HA microarray, transfection set 4
[31] = biological target: recombinant homotrimeric HA, A/Japan/305/57 H2N2 (Influenza A virus A/Japan/305/57 (H2N2)); assay: trimeric HA microarray, transfection set 4
[32] = biological target: recombinant homotrimeric HA, A/Wisconsin/67/05 H3N2 (Influenza A virus A/Wisconsin/67/05 (H3N2)); assay: trimeric HA microarray, transfection set 4
[33] = biological target: recombinant homotrimeric HA, A/swine/Ontario/01911-2/99 H4N6 (Influenza A virus A/swine/Ontario/01911-2/99 (H4N6)); assay: trimeric HA microarray, transfection set 4

TCN-202 (2N9) (antibody)
OD450 [1]: 0.1 OD450 | OD450 [2]: 0.07 OD450 | OD450 [3]: 0.08 OD450 | Trimeric HA Binding RLU [4]: 76 RLU | Trimeric HA Binding RLU [5]: 67 RLU | Trimeric HA Binding RLU [6]: 32 RLU | Trimeric HA Binding RLU [7]: 24 RLU | Trimeric HA Binding RLU [8]: 21 RLU | Trimeric HA Binding RLU [9]: 20 RLU | Trimeric HA Binding RLU [10]: 26 RLU | Trimeric HA Binding RLU [11]: 57 RLU | Trimeric HA Binding RLU [12]: 27 RLU | Trimeric HA Binding RLU [13]: 13 RLU | Trimeric HA Binding RLU [14]: 21 RLU | Trimeric HA Binding RLU [15]: 55 RLU | Trimeric HA Binding RLU [16]: 29 RLU | Trimeric HA Binding RLU [17]: 14 RLU | Trimeric HA Binding RLU [18]: 525 RLU | Trimeric HA Binding RLU [19]: 30000 RLU | Trimeric HA Binding RLU [20]: 5330 RLU | Trimeric HA Binding RLU [21]: 733 RLU | Trimeric HA Binding RLU [22]: 1970 RLU | Trimeric HA Binding RLU [23]: 1880 RLU | Trimeric HA Binding RLU [24]: 581 RLU | Trimeric HA Binding RLU [25]: 2690 RLU | Trimeric HA Binding RLU [26]: 34 RLU | Trimeric HA Binding RLU [27]: 67 RLU | Trimeric HA Binding RLU [28]: 27 RLU | Trimeric HA Binding RLU [29]: 94 RLU | Trimeric HA Binding RLU [30]: 19 RLU | Trimeric HA Binding RLU [31]: 334 RLU | Trimeric HA Binding RLU [32]: 125 RLU | Trimeric HA Binding RLU [33]: 157 RLU
